These results are taken from article PMC10739154, “Reinvestigation of Disulfide-bonded Oligomeric Forms of the Unfolded Protein Response Transducer ATF6” (Cell Structure and Function, 2019).

Broadly, the stoichiometry N is the number of molecules, sites or subunits per partner or assembly.

Data set [1] deals with C467A mutant of ATF6α(Δ244)-TAP (human). Briefly: non-reducing SDS-PAGE with immunoblotting; ATF6α-TAP constructs of various lengths at the N-terminus in HCT116 DKO cells; lysates on non-reducing SDS-PAGE; blot with anti-Myc; shows disulfide-bonded forms. A general note: In western blotting, separated proteins are transferred to a membrane and probed.
Data set [2] deals with C467A mutant of ATF6α(Δ331)-TAP (human). Described as above.
The target of data set [3] is C467A mutant of ATF6α(Δ355)-TAP (human). The description is as above.
For data set [4], the target named is C467A mutant of ssATF6α(C)-TAP (human). The data set is described as above.
Data set [5] has as its target C618A mutant of ATF6α(Δ244)-TAP (human). The data set is described as above.
For data set [6], the target named is C618A mutant of ATF6α(Δ331)-TAP (human). Described as above.
Data set [7] has as its target C618A mutant of ATF6α(Δ355)-TAP (human). The data set is described as above.
Data set [8] concerns the target C618A mutant of ssATF6α(C)-TAP (human). The data set is described as above.
Data set [9] deals with the molecule itself. The experiment in a line: non-reducing SDS-PAGE with immunoblotting; one form of ATF6α in the cells; lysis in 1% NP-40 buffer (50 mM Tris/HCl pH 7.5, 150 mM NaCl, 10 mM N-ethylmaleimide), boiled in SDS sample buffer without dithiothreitol; blot with anti-ATF6α; shows disulfide-bonded forms.
Data set [10] deals with the molecule itself. Briefly: non-reducing SDS-PAGE with immunoblotting; ATF6α-TAP constructs of various lengths at the N-terminus in HCT116 DKO cells; lysates on non-reducing SDS-PAGE; blot with anti-Myc; shows disulfide-bonded forms.

Numbering of substitutions follows the chain as printed. Numbers in names are those of the source.

In [1], “C467A mutant of ATF6α(Δ244)-TAP (domain or fragment)” gave a stoichiometry N of 2.

In turn, “C467A mutant of ATF6α(Δ331)-TAP (domain or fragment)” showed a stoichiometry N in data set [2] of 2.

Consider “C467A mutant of ATF6α(Δ355)-TAP (domain or fragment)”, for which the stoichiometry N in data set [3] is 2.

With “C467A mutant of ssATF6α(C)-TAP (domain or fragment)”, the stoichiometry N in [4] is 2.

The molecule “C618A mutant of ATF6α(Δ244)-TAP (domain or fragment)” returned a stoichiometry N in data set [5] of 2.

With “C618A mutant of ATF6α(Δ331)-TAP (domain or fragment)”, the stoichiometry N in data set [6] was found to be 2.

In the case of “C618A mutant of ATF6α(Δ355)-TAP (domain or fragment)”, the stoichiometry N in [7] came to 2.

For the molecule “C618A mutant of ssATF6α(C)-TAP (domain or fragment)”, the stoichiometry N in data set [8] was 2.

B1: ATF6α (endogenous, HCT116 cells) (natural protein, human (endogenous in HCT116), UniProt P18850 1-670, looked up)
chain: MGEPAGVAGTMESPFSPGLFHRLDEDWDSALFAELGYFTDTDELQLEAANETYENNFDNLDFDLDLMPWESDIWDINNQICTVKDIKAEPQPLSPASSSYSVSSPRSVDSYSSTQHVPEELDLSSSSQMSPLSLYGENSNSLSSAEPLKEDKPVTGPRNKTENGLTPKKKIQVNSKPSIQPKPLLLPAAPKTQTNSSVPAKTIIIQTVPTLMPLAKQQPIISLQPAPTKGQTVLLSQPTVVQLQAPGVLPSAQPVLAVAGGVTQLPNHVVNVVPAPSANSPVNGKLSVTKPVLQSTMRNVGSDIAVLRRQQRMIKNRESACQSRKKKKEYMLGLEARLKAALSENEQLKKENGTLKRQLDEVVSENQRLKVPSPKRRVVCVMIVLAFIILNYGPMSMLEQDSRRMNPSVSPANQRRHLLGFSAKEAQDTSDGIIQKNSYRYDHSVSNDKALMVLTEEPLLYIPPPPCQPLINTTESLRLNHELRGWVHRHEVERTKSRRMTNNQQKTRILQGALEQGSNSQLMAVQYTETTSSISRNSGSELQVYYASPRSYQDFFEAIRRRGDTFYVVSFRRDHLLLPATTHNKTTRPKMSIVLPAININENVINGQDYEVMMQIDCQVMDTRILHIKSSSVPPYLRDQQRNQTNTFFGSPPAATEATHVVSTIPESLQ
notes: ATF6α, endogenous in human colorectal carcinoma-derived HCT116 cells; also called pATF6α(P); source: endogenous, HCT116 WT cell lysate
As for B1, in [9], the “stoichiometry N” value worked out at 2.

B2: HA-ATF6α(WT) (natural protein, human, UniProt P18850 1-670, looked up)
chain: B1 chain
notes: ATF6α, human, full length; Plasmid from R. Prywes (Wang et al., 2000); also called HA-tagged WT; HA-tagged ATF6α WT; source: HCT116 ATF6α/β-DKO cells, transfected, in lysate; not shown: HA, N-terminal, kept
As to B2, in [9], the “stoichiometry N” value was 2.

B3: C467A mutant of ATF6α-TAP (natural protein, human, UniProt P18850 1-670, looked up)
chain: B1 chain with C467A
notes: ATF6α, human, full length, C467A; also called ATF6α(C467A)-TAP; source: HCT116 ATF6α/β-DKO cells, transfected, in lysate
In the case of B3, in data set [10], the “stoichiometry N” value worked out at 2.

B4: C618A mutant of ATF6α-TAP (natural protein, human, UniProt P18850 1-670, looked up)
chain: B1 chain with C618A
notes: ATF6α, human, full length, C618A; also called ATF6α(C618A)-TAP; source: HCT116 ATF6α/β-DKO cells, transfected, in lysate
For B4, the “stoichiometry N” value in [10] turned out to be 2.

B5: EGFP-ATF6α(WT) (natural protein, human, UniProt P18850 1-670, looked up)
chain: B1 chain
notes: ATF6α, human, tagged with EGFP at the N-terminus; Constructed in previous studies (Nadanaka et al., 2007; 2004); source: HCT116 ATF6α/β-DKO cells, transfected, in lysate; not shown: EGFP, N-terminal, kept
As for B5, the “stoichiometry N” value in data set [9] was found to be 2.

B6: HA-ATF6α(C467A) (natural protein, human, UniProt P18850 1-670, looked up)
chain: B1 chain with C467A
notes: ATF6α, human, full length, C467A; Constructed in previous studies (Nadanaka et al., 2007; 2004); also called HA-tagged C467A mutant; source: HCT116 ATF6α/β-DKO cells, transfected, in lysate; not shown: HA, N-terminal, kept
Consider B6, for which the “stoichiometry N” value in [9] came to 2.

B7: EGFP-ATF6α(C467A) (natural protein, human, UniProt P18850 1-670, looked up)
chain: B1 chain with C467A
notes: ATF6α, human, C467A, tagged with EGFP at the N-terminus; Constructed in previous studies (Nadanaka et al., 2007; 2004); source: HCT116 ATF6α/β-DKO cells, transfected, in lysate; not shown: EGFP, N-terminal, kept
With B7, in data set [9], the “stoichiometry N” value is 2.

B8: EGFP-ATF6α(C618A) (natural protein, human, UniProt P18850 1-670, looked up)
chain: B1 chain with C618A
notes: ATF6α, human, C618A, tagged with EGFP at the N-terminus; Constructed in previous studies (Nadanaka et al., 2007; 2004); source: HCT116 ATF6α/β-DKO cells, transfected, in lysate; not shown: EGFP, N-terminal, kept
For B8, the “stoichiometry N” value in data set [9] was 2.
